Source: paper PMC3013012

Key:
[1] = biological target: SETDB1 peptide RQVAVKme2STRGFALKme2STHGIAIKme2STN (human)
[2] = biological target: SETDB1 peptide RQVAVKme3STRGFALKme3STHGIAIKme3STN (human)

| Substance | Kd [1] [µM] | Kd [2] [µM] |
| --- | --- | --- |
| Cbx8 chromodomain, Cbx8-(8–61) (from UniProt Q9HC52 8-61) (domain or fragment) | 180 |  |
| Cbx7 chromodomain, Cbx7-(8–62) (from UniProt O95931 8-62) (domain or fragment) | 15 | 1.2 |
